T1: human EphA7 extracellular region-SEAP-His protein (human, UniProt Q15375 28-555)
T1 construct: extracellular domain; also called hEphA7-SEAP-His
T1 sequence (looked up): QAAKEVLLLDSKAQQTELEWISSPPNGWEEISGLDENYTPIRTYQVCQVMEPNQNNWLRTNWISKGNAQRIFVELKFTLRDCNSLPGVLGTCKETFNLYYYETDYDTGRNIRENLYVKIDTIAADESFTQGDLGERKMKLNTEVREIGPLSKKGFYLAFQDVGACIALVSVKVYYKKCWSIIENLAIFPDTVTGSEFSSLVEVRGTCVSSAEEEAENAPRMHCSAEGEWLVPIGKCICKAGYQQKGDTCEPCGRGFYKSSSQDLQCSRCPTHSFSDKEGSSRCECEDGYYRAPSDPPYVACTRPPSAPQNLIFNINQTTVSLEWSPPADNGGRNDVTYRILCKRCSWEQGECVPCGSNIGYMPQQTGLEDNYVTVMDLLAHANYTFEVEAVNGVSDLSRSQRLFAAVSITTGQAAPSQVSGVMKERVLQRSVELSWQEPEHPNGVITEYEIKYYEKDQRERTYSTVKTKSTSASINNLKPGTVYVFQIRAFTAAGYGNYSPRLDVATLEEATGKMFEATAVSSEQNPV

T2: human EphA8 extracellular region-SEAP-His protein (human, UniProt P29322 28-542)
T2 construct: extracellular domain; also called hEphA8-SEAP-His
T2 sequence (looked up): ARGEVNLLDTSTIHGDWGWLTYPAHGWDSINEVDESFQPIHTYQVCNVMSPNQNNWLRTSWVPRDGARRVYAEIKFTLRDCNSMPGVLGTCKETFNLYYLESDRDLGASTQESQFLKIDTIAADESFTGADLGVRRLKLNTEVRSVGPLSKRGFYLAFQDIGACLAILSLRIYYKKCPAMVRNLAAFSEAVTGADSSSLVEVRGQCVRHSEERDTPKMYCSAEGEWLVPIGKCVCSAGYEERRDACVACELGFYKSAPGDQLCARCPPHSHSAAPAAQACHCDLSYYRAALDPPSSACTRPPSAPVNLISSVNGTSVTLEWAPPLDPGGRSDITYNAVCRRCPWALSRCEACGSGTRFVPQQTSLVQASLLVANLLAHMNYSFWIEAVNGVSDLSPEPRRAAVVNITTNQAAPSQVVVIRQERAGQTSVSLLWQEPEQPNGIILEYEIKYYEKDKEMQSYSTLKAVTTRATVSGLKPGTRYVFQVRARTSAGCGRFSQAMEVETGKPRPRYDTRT

T3: human EphB6 extracellular region-SEAP-His protein (human, UniProt O15197 32-594)
T3 construct: extracellular domain; also called hEphB6-SEAP-His
T3 sequence (looked up): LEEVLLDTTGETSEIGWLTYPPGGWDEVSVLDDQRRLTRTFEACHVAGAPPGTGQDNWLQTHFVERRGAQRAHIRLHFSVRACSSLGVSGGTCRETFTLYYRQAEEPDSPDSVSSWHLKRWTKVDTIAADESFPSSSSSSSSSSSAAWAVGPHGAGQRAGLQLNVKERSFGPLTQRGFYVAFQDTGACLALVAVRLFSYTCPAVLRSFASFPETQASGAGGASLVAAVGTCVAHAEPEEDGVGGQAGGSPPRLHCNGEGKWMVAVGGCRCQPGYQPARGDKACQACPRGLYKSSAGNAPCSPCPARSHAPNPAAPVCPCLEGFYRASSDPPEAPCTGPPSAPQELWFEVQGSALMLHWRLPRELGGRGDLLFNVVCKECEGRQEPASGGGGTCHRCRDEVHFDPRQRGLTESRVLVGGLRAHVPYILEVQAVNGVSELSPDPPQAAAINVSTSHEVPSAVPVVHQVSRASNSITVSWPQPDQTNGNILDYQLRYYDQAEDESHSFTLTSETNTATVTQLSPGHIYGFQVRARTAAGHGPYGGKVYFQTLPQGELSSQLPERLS

T4: human EphB4 extracellular region-SEAP-His protein (human, UniProt P54760 16-539)
T4 construct: extracellular domain; also called hEphB4-SEAP-His
T4 sequence (looked up): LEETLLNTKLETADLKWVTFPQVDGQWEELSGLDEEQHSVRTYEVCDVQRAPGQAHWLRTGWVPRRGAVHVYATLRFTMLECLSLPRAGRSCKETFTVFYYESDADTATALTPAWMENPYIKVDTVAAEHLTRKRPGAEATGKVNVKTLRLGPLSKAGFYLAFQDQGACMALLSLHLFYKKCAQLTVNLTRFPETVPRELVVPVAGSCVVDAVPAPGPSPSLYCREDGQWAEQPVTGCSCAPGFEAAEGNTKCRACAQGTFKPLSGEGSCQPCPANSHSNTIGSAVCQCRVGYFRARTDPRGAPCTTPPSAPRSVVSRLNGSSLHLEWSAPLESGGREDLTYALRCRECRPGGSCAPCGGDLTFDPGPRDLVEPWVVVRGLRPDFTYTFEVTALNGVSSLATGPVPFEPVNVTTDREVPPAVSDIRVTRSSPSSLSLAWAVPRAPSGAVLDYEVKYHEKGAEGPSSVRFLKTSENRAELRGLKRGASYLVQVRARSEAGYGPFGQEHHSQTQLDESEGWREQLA


Assays:
Assay in all cases: ELISA
[1] = target: T1, human EphA7 extracellular …
[2] = target: T5, human EphA2 extracellular region-SEAP-His protein (human, UniProt P29317 24-537)
T5 construct: extracellular domain; also called hEphA2-SEAP-His

[3] = target: T2, human EphA8 extracellular …
[4] = target: T3, human EphB6 extracellular …
[5] = target: T6, human EphA5 extracellular region-SEAP-His protein (human, UniProt P54756 25-573)
T6 construct: extracellular domain; also called hEphA5-SEAP-His

[6] = target: T4, human EphB4 extracellular …

T5 sequence (P29317 24-537): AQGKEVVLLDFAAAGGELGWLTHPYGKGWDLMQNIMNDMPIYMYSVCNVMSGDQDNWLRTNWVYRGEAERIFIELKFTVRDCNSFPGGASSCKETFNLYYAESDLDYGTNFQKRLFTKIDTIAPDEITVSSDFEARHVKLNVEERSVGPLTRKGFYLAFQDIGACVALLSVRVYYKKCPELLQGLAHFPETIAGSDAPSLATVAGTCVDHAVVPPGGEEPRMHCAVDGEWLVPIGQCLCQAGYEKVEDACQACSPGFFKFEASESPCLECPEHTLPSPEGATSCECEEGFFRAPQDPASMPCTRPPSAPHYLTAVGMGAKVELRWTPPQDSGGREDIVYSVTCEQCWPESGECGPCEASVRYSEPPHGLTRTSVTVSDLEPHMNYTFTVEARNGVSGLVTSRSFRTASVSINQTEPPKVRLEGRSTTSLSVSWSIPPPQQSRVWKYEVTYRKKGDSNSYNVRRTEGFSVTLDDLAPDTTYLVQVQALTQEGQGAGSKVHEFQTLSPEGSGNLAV
T6 sequence (P54756 25-573): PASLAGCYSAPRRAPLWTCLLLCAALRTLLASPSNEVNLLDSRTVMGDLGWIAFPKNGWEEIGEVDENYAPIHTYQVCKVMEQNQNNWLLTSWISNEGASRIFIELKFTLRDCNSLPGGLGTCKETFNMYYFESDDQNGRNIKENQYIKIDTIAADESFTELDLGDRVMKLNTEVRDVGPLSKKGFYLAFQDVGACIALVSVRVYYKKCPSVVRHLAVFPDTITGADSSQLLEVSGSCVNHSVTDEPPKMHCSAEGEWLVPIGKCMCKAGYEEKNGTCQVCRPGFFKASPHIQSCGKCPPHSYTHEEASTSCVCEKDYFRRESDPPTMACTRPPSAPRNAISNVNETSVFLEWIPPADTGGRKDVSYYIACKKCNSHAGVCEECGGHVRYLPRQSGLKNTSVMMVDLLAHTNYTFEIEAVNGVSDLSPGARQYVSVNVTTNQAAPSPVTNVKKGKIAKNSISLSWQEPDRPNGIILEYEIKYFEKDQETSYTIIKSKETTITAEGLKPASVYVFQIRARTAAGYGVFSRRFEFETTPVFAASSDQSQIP

Row | Binder | A450 as % of hEphA4-SEAP-His [1] [%] | A450 as % of hEphA4-SEAP-His [2] [%] | A450 as % of hEphA4-SEAP-His [3] [%] | A450 as % of hEphA4-SEAP-His [4] [%] | A450 as % of hEphA4-SEAP-His [5] [%] | A450 as % of hEphA4-SEAP-His [6] [%]
1 | humanized antibody No. 76 (antibody, human IgG1, kappa, human Ig kappa; also called L1-4/HA2) heavy: QVQLVQSGSELKKPGASVKVSCKASGYTFTDYSMHWVRQAPGQGLKWMGWINTETGEPTYAQGFTGRFVFSLDTSVSTAYLQISSLKAEDTAVYYCARIPLYYYGSRYWYFDVWGQGTTVTVSSASTKGPSVFPLAPSSKSTSGGTAALGCLVKDYFPEPVTVSWNSGALTSGVHTFPAVLQSSGLYSLSSVVTVPSSSLGTQTYICNVNHKPSNTKVDKRVEPKSCDKTHTCPPCPAPPAAAPSVFLFPPKPKDTLMISRTPEVTCVVVDVSHEDPEVQFNWYVDGVEVHNAKTKPREEQFNSTFRVVSVLTVVHQDWLNGKEYKCKVSNKGLPAPIEKTISKTKGQPREPQVYTLPPSREEMTKNQVSLTCLVKGFYPSDIAVEWESNGQPENNYKTTPPMLDSDGSFFLYSKLTVDKSRWQQGNVFSCSVMHEALHNHYTQKSLSLSPG light: DIQMTQSPSSLSASVGDRVTITCRASENIYRNLAWYQQKPGKAPKLLVYAATNLADGVPSRFSGSGSGTDYTLTISSLQPEDFATYYCQHFWGTPWTFGQGTKVEIKRTVAAPSVFIFPPSDEQLKSGTASVVCLLNNFYPREAKVQWKVDNALQSGNSQESVTEQDSKDSTYSLSSTLTLSKADYEKHKVYACEVTHQGLSSPVTKSFNRGEC | 4.8 | 4.8 | 5.5 | 5.2 | 5.3 | 5.2
2 | humanized antibody No. 67 (antibody, human IgG1, kappa, human Ig kappa; also called L1-4/HA4) heavy: QIQLVQSGSELKKPGASVKVSCKASGYTFTDYSMHWVRQAPGQGLKWMGWINTETGEPTYAQGFTGRFVFSLDTSVSTAYLQISSLKAEDTAVYYCARIPLYYYGSRYWYFDVWGQGTTVTVSSASTKGPSVFPLAPSSKSTSGGTAALGCLVKDYFPEPVTVSWNSGALTSGVHTFPAVLQSSGLYSLSSVVTVPSSSLGTQTYICNVNHKPSNTKVDKRVEPKSCDKTHTCPPCPAPPAAAPSVFLFPPKPKDTLMISRTPEVTCVVVDVSHEDPEVQFNWYVDGVEVHNAKTKPREEQFNSTFRVVSVLTVVHQDWLNGKEYKCKVSNKGLPAPIEKTISKTKGQPREPQVYTLPPSREEMTKNQVSLTCLVKGFYPSDIAVEWESNGQPENNYKTTPPMLDSDGSFFLYSKLTVDKSRWQQGNVFSCSVMHEALHNHYTQKSLSLSPG light: DIQMTQSPSSLSASVGDRVTITCRASENIYRNLAWYQQKPGKAPKLLVYAATNLADGVPSRFSGSGSGTDYTLTISSLQPEDFATYYCQHFWGTPWTFGQGTKVEIKRTVAAPSVFIFPPSDEQLKSGTASVVCLLNNFYPREAKVQWKVDNALQSGNSQESVTEQDSKDSTYSLSSTLTLSKADYEKHKVYACEVTHQGLSSPVTKSFNRGEC | 4.7 | 4.6 | 4.7 | 4.7 | 4.8 | 4.9

Other lines, results leading:

Row | A450 as % of hEphA4-SEAP-His [1] [%] | A450 as % of hEphA4-SEAP-His [2] [%] | A450 as % of hEphA4-SEAP-His [3] [%] | A450 as % of hEphA4-SEAP-His [4] [%] | A450 as % of hEphA4-SEAP-His [5] [%] | A450 as % of hEphA4-SEAP-His [6] [%] | Binder
3 | 5.3 | 5.5 | 5.5 | 5.6 | 5.6 | 5.5 | humanized antibody No. 69 (antibody, human IgG1, kappa, human Ig kappa; also called L1-4/HK4) heavy: QIQLVQSGSELKKPGASVKVSCKASGYTFTDYSMHWVRQAPGQGLKWMGWINTETGEPTYADDFKGRFVFSLDTSVSTAYLQISSLKAEDTAVYYCARIPLYYYGSRYWYFDVWGQGTTVTVSSASTKGPSVFPLAPSSKSTSGGTAALGCLVKDYFPEPVTVSWNSGALTSGVHTFPAVLQSSGLYSLSSVVTVPSSSLGTQTYICNVNHKPSNTKVDKRVEPKSCDKTHTCPPCPAPPAAAPSVFLFPPKPKDTLMISRTPEVTCVVVDVSHEDPEVQFNWYVDGVEVHNAKTKPREEQFNSTFRVVSVLTVVHQDWLNGKEYKCKVSNKGLPAPIEKTISKTKGQPREPQVYTLPPSREEMTKNQVSLTCLVKGFYPSDIAVEWESNGQPENNYKTTPPMLDSDGSFFLYSKLTVDKSRWQQGNVFSCSVMHEALHNHYTQKSLSLSPG light: DIQMTQSPSSLSASVGDRVTITCRASENIYRNLAWYQQKPGKAPKLLVYAATNLADGVPSRFSGSGSGTDYTLTISSLQPEDFATYYCQHFWGTPWTFGQGTKVEIKRTVAAPSVFIFPPSDEQLKSGTASVVCLLNNFYPREAKVQWKVDNALQSGNSQESVTEQDSKDSTYSLSSTLTLSKADYEKHKVYACEVTHQGLSSPVTKSFNRGEC
4 | 4.7 | 4.6 | 4.8 | 4.7 | 4.7 | 4.6 | humanized antibody No. 75 (antibody, human IgG1, kappa, constant region: human IgG1 CH1 and hinge, human IgG2 CH2 and CH3 with V234A, G237A, no C-terminal Lys; human Ig kappa; also called L1-4/HA1) heavy: QVQLVQSGSELKKPGASVKVSCKASGYTFTDYSMHWVRQAPGQGLEWMGWINTETGEPTYAQGFTGRFVFSLDTSVSTAYLQISSLKAEDTAVYYCARIPLYYYGSRYWYFDVWGQGTTVTVSSASTKGPSVFPLAPSSKSTSGGTAALGCLVKDYFPEPVTVSWNSGALTSGVHTFPAVLQSSGLYSLSSVVTVPSSSLGTQTYICNVNHKPSNTKVDKRVEPKSCDKTHTCPPCPAPPAAAPSVFLFPPKPKDTLMISRTPEVTCVVVDVSHEDPEVQFNWYVDGVEVHNAKTKPREEQFNSTFRVVSVLTVVHQDWLNGKEYKCKVSNKGLPAPIEKTISKTKGQPREPQVYTLPPSREEMTKNQVSLTCLVKGFYPSDIAVEWESNGQPENNYKTTPPMLDSDGSFFLYSKLTVDKSRWQQGNVFSCSVMHEALHNHYTQKSLSLSPG light: DIQMTQSPSSLSASVGDRVTITCRASENIYRNLAWYQQKPGKAPKLLVYAATNLADGVPSRFSGSGSGTDYTLTISSLQPEDFATYYCQHFWGTPWTFGQGTKVEIKRTVAAPSVFIFPPSDEQLKSGTASVVCLLNNFYPREAKVQWKVDNALQSGNSQESVTEQDSKDSTYSLSSTLTLSKADYEKHKVYACEVTHQGLSSPVTKSFNRGEC
